# Source: IntAct's records for PubMed 22613832
# B1: Ras-related protein Rab-11B (Homo sapiens), Q15907 (parent)
# chain: MGTRDDEYDYLFKVVLIGDSGVGKSNLLSRFTRNEFNLESKSTIGVEFATRSIQVDGKTIKAQIWDTAGQERYRAITSAYYRGAVGALLVYDIAKHLTYENVERWLKELRDHADSNIVIMLVGNKSDLRHLRAVPTDEARAFAEKNNLSFIETSALDSTNVEEAFKNILTEIYRIVSQKQIADRAAHDESPGNNVVDISVPPTTDGQKPNKLQCCQNL
# partner: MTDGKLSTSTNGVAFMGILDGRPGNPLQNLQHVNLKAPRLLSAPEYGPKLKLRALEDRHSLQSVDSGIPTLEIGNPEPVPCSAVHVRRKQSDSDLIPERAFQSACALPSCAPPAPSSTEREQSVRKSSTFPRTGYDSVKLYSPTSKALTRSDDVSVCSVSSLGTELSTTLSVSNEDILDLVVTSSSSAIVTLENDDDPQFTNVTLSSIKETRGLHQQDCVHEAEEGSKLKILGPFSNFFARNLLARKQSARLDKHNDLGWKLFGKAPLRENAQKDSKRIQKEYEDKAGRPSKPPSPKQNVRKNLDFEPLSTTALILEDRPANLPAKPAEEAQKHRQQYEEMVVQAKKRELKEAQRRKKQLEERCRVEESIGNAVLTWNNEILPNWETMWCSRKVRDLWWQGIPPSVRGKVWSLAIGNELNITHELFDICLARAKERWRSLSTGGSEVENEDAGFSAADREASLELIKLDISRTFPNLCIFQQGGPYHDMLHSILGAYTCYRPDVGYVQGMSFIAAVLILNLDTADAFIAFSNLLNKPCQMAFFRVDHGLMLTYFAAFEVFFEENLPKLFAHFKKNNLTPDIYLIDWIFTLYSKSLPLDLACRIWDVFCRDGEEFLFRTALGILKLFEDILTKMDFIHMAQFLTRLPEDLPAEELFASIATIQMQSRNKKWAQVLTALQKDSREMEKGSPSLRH
# Variants of: B1
# Conditions: with tbc14_human TBC1D14, Q9P2M4
row,effect of a mutation on the interaction,Variant
1,decreasing interaction strength,MGTRDDEYDYLFKVVLIGDSGVGKNNLLSRFTRNEFNLESKSTIGVEFATRSIQVDGKTIKAQIWDTAGQERYRAITSAYYRGAVGALLVYDIAKHLTYENVERWLKELRDHADSNIVIMLVGNKSDLRHLRAVPTDEARAFAEKNNLSFIETSALDSTNVEEAFKNILTEIYRIVSQKQIADRAAHDESPGNNVVDISVPPTTDGQKPNKLQCCQNL [S25N]
2,increasing interaction strength,MGTRDDEYDYLFKVVLIGDSGVGKSNLLSRFTRNEFNLESKSTIGVEFATRSIQVDGKTIKAQIWDTAGAERYRAITSAYYRGAVGALLVYDIAKHLTYENVERWLKELRDHADSNIVIMLVGNKSDLRHLRAVPTDEARAFAEKNNLSFIETSALDSTNVEEAFKNILTEIYRIVSQKQIADRAAHDESPGNNVVDISVPPTTDGQKPNKLQCCQNL [Q70A]
